{"source": "paper PMC7666158", "about": "“Co-regulation of the transcription controlling ATF2 phosphoswitch by JNK and p38” (Nature Communications, 2020)", "binders": {"B1": {"name": "MBP-ATF2(19-100)-WT (domain or fragment, human, UniProt P15336-1 19-100, looked up)", "chain": "MSDDKPFLCTAPGCGQRFTNEDHLAVHKHKHEMTLKFGPARNDSVIVADQTPTPTRFLKNCEEVGLFNELASPFENEFKKAS", "notes": "A TEV site lies between MBP and ATF2; also called MBP-ATF2-His6; ATF2 TAD; source: E. coli BL21(DE3), purified (Ni-NTA, maltose resin); not shown: MBP, N-terminal, kept; His6, C-terminal, kept"}}, "key": {"pp-p38 (activated, …) [1]": {"molecular_target": "T1, pp-p38 (activated, double-phosphorylated p38alpha) (human, UniProt Q16539 1-360, double-phosphorylated on the activation loop (pp-p38; T180/Y182 as named for the anti-pp-p38 antibody; pY182 in Fig. 5b))", "T1 construct": "human p38alpha (MAPK14), phosphorylated form; also called pp-p38α; source: E. coli, co-expressed with constitutively active GST-tagged MAP2Ks, purified", "T1 sequence (Q16539 whole entry)": "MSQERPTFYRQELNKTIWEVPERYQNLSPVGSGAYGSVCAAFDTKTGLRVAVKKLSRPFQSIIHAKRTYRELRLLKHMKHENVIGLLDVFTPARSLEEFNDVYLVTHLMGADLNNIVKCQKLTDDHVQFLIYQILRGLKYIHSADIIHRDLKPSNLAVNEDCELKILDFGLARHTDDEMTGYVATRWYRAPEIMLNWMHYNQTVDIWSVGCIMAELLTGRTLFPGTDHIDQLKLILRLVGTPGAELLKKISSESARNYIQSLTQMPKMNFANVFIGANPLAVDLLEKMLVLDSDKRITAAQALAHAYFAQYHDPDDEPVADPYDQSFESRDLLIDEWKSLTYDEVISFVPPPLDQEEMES", "assay": "in vitro kinase assay fitted with a kinetic model; 5 nM pp-JNK or pp-p38, MBP-ATF2(19-100) substrate 0.5-100 uM, 5 mM ATP, kinase buffer; p-T71 and p-T69/T71 by quantitative dot-blots; binding rates (kon, koff) and reaction rates fitted simultaneously with the BioNetGen model (PyBioNetFit)", "details": "both partners purified"}, "pp-p38 (activated, …) [2]": {"molecular_target": "T1, pp-p38 (activated, …)", "assay": "in vitro kinase assay fitted with a kinetic model; 5 nM pp-JNK or pp-p38, MBP-ATF2(19-100) substrate 0.5-100 uM, 5 mM ATP, kinase buffer; p-T71 and p-T69/T71 by quantitative dot-blots; binding rates (kon, koff) and reaction rates fitted simultaneously with the BioNetGen model (PyBioNetFit)", "details": "both partners purified", "remark": "listed apart in the source"}}}
{"binder": "B1", "values": [{"measurement": "Kd", "setting": "pp-p38 (activated, …) [1]", "value": "~25", "unit": "µM"}, {"measurement": "koff", "setting": "pp-p38 (activated, …) [2]", "value": 429, "unit": "s⁻¹"}, {"measurement": "kon", "setting": "pp-p38 (activated, …) [2]", "value": "1.72e+07", "unit": "M⁻¹ s⁻¹"}]}
